From US20120238494A1 (published 2012)
Blank lines part the entries; values can stand above or below the molecule they belong to. Numbered stars: 1 amine (or outer) side, 2 acyl side, 3 side chain; on linkers, the order of the positions; unused ones are H or OH. Square brackets hold non-standard residues; d marks the D form. dSer(tBu) = CC(C)(C)OC[C@@H](N[*:1])C(=O)[*:2]; pGlu = O=C1CC[C@@H](C(=O)O)N1; azaGly = NNC(=O)O

What was measured:
human GnRH receptor [1] = target: T1, human GnRH receptor (human, UniProt P30968 1-328); assay: cell-based or functional assay
T1 construct: whole, on cells; Endogenous receptor; also called LHRH receptor; human pituitary GnRH receptor
T1 sequence (looked up): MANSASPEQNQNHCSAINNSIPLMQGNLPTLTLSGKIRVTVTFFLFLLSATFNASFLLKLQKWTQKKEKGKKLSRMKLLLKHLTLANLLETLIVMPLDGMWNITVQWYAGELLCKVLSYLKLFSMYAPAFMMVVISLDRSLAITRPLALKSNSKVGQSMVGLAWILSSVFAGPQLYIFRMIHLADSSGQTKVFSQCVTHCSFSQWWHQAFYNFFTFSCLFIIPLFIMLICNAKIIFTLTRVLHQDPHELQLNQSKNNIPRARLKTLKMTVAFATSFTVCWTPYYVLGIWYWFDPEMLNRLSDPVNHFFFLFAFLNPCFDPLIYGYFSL

human GnRH receptor [2] = target: T1, human GnRH receptor; assay: radioligand binding, displacement curves, BLM human melanoma cell membranes
human GnRH receptor [3] = target: T1, human GnRH receptor; assay: radioligand binding, displacement curves, ME15392 human melanoma cell membranes
[4] = target: T2, rat GnRH receptor (rat pituitaries) (rat, UniProt P30969 1-327); assay: radioligand binding, displacement curves, rat pituitaries (control)
T2 construct: whole, on cells; Endogenous receptor of rat pituitary tissue, used as the control preparation
T2 sequence (looked up): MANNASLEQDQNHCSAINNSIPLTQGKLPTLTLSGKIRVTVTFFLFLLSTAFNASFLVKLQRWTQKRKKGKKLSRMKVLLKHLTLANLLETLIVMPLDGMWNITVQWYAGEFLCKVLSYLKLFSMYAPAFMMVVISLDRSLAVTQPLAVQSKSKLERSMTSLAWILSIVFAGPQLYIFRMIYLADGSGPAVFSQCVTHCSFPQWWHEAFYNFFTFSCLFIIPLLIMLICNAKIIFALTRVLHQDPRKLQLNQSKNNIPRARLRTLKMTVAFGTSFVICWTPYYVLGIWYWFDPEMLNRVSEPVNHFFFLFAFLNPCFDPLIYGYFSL

- decrease of U-87MG cell proliferation at 10^-6 M (human GnRH receptor [1]): 28%
- inhibition of U-87MG cell proliferation at 10^-5 M (human GnRH receptor [1]): 30%
Molecule: GnRH antagonist Cetrorelix (peptide)

- inhibition of MV3 melanoma cell proliferation at 10^-4 M, 10^-5 M and 10^-6 M, from day 4 on (human GnRH receptor [1]): 15%
Molecule: Triptorelin, an LHRH agonist (Sigma Chemical Co., No. L9761) (peptide)

The next lines start with the molecule.

Molecule: Antide, a LHRH antagonist (Sigma Chemical Co., No. A8802) (peptide)
- inhibition of MV3 melanoma cell proliferation at 10^-4 M (human GnRH receptor [1]): 15%
- inhibition of MV3 melanoma cell proliferation at 10^-5 M (human GnRH receptor [1]): 35%
- stimulation of MV3 melanoma cell growth at 10^-6 M (human GnRH receptor [1]): 40%

B1: GnRH agonist LHRH-A, ZOLADEX [D-Ser(tBu)^6Aza-Gly-LHRH] (peptide)
peptide: [pGlu]HWSY[dSer(tBu)]LRP[azaGly]-NH2
modifications: also: 125I-labelled tracer form, position not given here
notes: the unlabelled form was used in the cell assays; also called Goserelin
- Kd (human GnRH receptor [2]): 0.7 to 1.1 nM
- Kd (human GnRH receptor [3]): 0.1 to 0.6 nM
- Kd [4]: 1.5 to 2 nM
